Values of other authors, collected in article PMC4291147, “Molecular Basis of Histone Tail Recognition by Human TIP5 PHD Finger and Bromodomain of the Chromatin Remodeling Complex NoRC” (Structure(London, England:1993), 2015).
Where two headings read alike, the source gives them in different places.

Assays:
[1] = target: Histone H3 K14ac peptide (Homo sapiens) (UniProt P68431)
[2] = target: Histone H3 K14ac peptide (Homo sapiens) (UniProt P68431); test: STD-NMR
[3] = target: Histone H3 K14ac peptide (Homo sapiens) (UniProt P68431); test: ITC

PCAF BRD, sequence (Q92831 723-827): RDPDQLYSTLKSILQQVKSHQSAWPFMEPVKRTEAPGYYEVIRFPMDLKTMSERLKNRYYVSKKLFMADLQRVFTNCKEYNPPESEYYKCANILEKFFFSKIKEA
PCAF bromodomain, sequence (Q92831 720-830): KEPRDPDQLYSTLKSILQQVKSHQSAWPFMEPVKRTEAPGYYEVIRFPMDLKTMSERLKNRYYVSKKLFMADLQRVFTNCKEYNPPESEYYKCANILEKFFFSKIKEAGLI
PB1 BRD 2, sequence (Q86U86 177-287): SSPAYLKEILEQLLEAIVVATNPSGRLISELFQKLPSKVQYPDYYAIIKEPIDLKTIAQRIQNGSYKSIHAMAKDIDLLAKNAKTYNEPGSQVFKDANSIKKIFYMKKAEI
PB1 BRD2, sequence (Q86U86 177-287): as above
SMARCA4 BRD, sequence (P51532 1453-1564): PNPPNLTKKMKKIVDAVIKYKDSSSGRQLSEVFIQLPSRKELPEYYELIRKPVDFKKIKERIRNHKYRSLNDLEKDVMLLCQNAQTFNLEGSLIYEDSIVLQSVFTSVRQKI
SMARCA2 bromodomain, sequence (P51531 1375-1509): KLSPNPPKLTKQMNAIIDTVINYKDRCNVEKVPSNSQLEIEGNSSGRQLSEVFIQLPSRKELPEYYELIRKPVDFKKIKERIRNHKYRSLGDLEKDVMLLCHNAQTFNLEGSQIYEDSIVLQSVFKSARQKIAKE
SMARCA4 bromodomain, sequence (P51532 1450-1567): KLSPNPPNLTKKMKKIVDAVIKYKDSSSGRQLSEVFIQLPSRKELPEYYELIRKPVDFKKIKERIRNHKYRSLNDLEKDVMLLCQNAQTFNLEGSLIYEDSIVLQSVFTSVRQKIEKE
SMARCA2 BRD, sequence (P51531 1378-1506): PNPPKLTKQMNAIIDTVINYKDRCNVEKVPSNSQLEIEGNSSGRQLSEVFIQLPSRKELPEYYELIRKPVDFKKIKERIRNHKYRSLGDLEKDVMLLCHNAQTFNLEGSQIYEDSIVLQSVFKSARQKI

In the case of PB1 BRD2 (from UniProt Q86U86), the Kd [1] is listed as 500 µM.
For PB1 BRD 2 (from UniProt Q86U86), the Kd [2] is listed as 500 µM.
In the case of PCAF BRD (from UniProt Q92831), the Kd [3] is given as 188 µM and the Kd [2] is given as 128 µM.
For PCAF bromodomain (from UniProt Q92831), the Kd [3] is listed as 188 µM and the Kd [2] is listed as 128 µM.
In the case of SMARCA2 BRD (from UniProt P51531), the Kd [3] is given as 285 µM.
In the case of “SMARCA2 bromodomain (from UniProt P51531)”, the Kd [3] is listed as 285 µM.
In the case of SMARCA4 BRD (from UniProt P51532), the Kd [2] is given as 1200 µM.
For “SMARCA4 bromodomain (from UniProt P51532)”, the Kd [2] is listed as 1200 µM.
